Reference: patent publication US20050059087A1, “Antibodies directed to the deletion mutants of epidermal growth factor receptor and uses thereof” (priority 2003, published 2005)
Positions count from the first letter of the chain named.

Tests used:
[1] = target: purified wild-type EGFR protein (Homo sapiens, UniProt P00533); assay: Western blot, purified wild-type EGFR protein; format: binding
Method: (§1) Specifcially, a subset of the antibodies were tested for their binding of to lysates of tumor cell lines in Western plates of polyacrylamide gel electrophoresis under either non-reducing or reducing conditions. Purifed recombinant protein is also included. […] Sample identifications: • EGFRvIII—the rabbit Fc fusion protein • H1477—H80 human tumor cell line transfected with EGFRvIII expression contruct. These cells express both EGFR and EGFRvIII. • EGFR—purified wild-type EGFR protein • A431—human tumor cell line expressing only wild-type EGFR • A549—human tumor cell line expressing only wild-type EGFR • H80—human tumor cell line expressing only wild-type EGFR

[2] = target: T1, A431 lysate (wild-type EGFR) (Homo sapiens, UniProt P00533); assay: Western blot, A431 lysate; format: binding
T1 construct: host or cells: A431
Method: as §1

[3] = target: T2, EGFrVIII peptide sequence (residues 1-20) (Homo sapiens, UniProt P00533, DELINS30-297G); assay: Epitope mapping by SPOTs peptide array and Alanine scanning; format: binding; settings: SEQ ID 94/98 = EEKKGNYVVT; 95 = LEEKKGNYVVTD; 96 = YVVTDH; 97 = YVVTD; 99 = GNYVVT
T2 construct: purchased Sigma-Genosys (custom SPOTs array)
Text: The approach that was used was a custom SPOTs peptide array (Sigma Genosys) to study the molecular interaction of the human anti-EGFrVIII antibodies with their peptide epitope. SPOTs technology is based on the solid-phase synthesis of peptides in a format suitable for the systematic analysis of antibody epitopes. Synthesis of custom arrayed oligopeptides is commerically available from Sigma-Genosys. A peptide array of overlapping oligopeptides derived from the amino-acid sequence of the EGFr VIII variant was ordered from Sigma-Genosys.
A series of nine 12-mer peptides were synthesized as spots on polypropylene membrane sheets. The peptide array spanned residues 1-20 of the EGFrVIII sequence, representing the deletion of amino acids 6-273 in the extracellular domain of wtEGFr, and the generation of a glycine (G) residue at the junction point. Each consecutive peptide was offset by 1 residue from the previous one, yielding a nested, overlapping library of arrayed oligopeptides. The membrane carrying the 9 peptides was reacted with 9 different anti EGFrVIII antibodies (1 μg/ml). The binding of the mAbs to the membrane-bound peptides was assessed by an enzyme-linked immunosorbent assay using HRP-conjugated secondary antibody followed by enhanced chemiluminescence (ECL).
In addition, functional epitopes were mapped by combinatorial Alanine scanning. In this process, a combinatorial Alanine-scanning strategy was used to identify amino acids in the EGFrVIII peptide necessary for interaction with anti-EGFRvIII mAbs. To accomplish this, a second set of SPOTs arrays was ordered for Alanine scanning. A panel of variants peptides with alanine substitutions in each of the 12 residues was scanned as above. Spot #1, the unmutated sequence, is a positive control for antibody binding.

[4] = target: T3, EGFRvIII rabbit Fc fusion protein (Homo sapiens, UniProt P00533, DELINS30-297G); assay: Western blot, purified EGFRvIII rabbit Fc fusion protein, reducing / non-reducing; format: binding; settings: native and reduced
T3 construct: fragment encoding the extracellular domain of EGFRvIII was generated; made in house; host or cells: 293F cells
Method: as §1

[5] = target: T4, Pep-3 (EGFRvIII epitope) (Homo sapiens, UniProt P00533, DELINS30-297G); assay: Biacore (surface plasmon resonance) binding kinetics to Pep-3; settings: for Ka / dissociation rate constant (kd, koff): parentheses 95% confidence interval
T4 construct: purchased Anatech, Inc. (San Jose, Calif.); host or cells: custom synthesis
Method: All antigen and mAb samples for Biacore and KinExA analysis were prepared in vacuum-degassed HBS-P buffer (0.01 M HEPES, 0.15 M NaCl, 0.005% surfactant P-20, Biacore Inc., Uppsala, Sweden) containing 100 μg/mL BSA. […] Research grade CM5 biosensor chips were purchased from Biacore, Inc.
Standard EDC/NHS and carbohydrate coupling was used to covalently immobilize mAbs to a CM5 sensor chip. To minimize mass transport and crowding mAbs were immobilized at levels that gave a maximum antigen binding response (Rmax) of no more than 50-100 RU. A reference flow cell on each chip was activated and blocked with no mAb immobilization to serve as a control.
All Biacore kinetic experiments were conducted at 23° C. […] Antigen samples were randomly injected over the biosensor surface in triplicate at 100 μL/min. Several buffer blanks were injected intermittently over the course of an experiment for double referencing. Each pep-3 concentration and blank were injected for 90 seconds. Dissociation was followed for 13 to 180 minutes.
All Biacore sensorgrams were processed using Scrubber software (Version 1.1f, BioLogic Software, Australia). Sensorgrams were first zeroed on the y-axis and then x-aligned at the beginning of the injection. Bulk refractive index changes were removed by subtracting the reference flow cell responses. The average response of all blank injections was subtracted from all analyte and blank sensorgrams to remove systematic artifacts between the experimental and reference flow cells. CLAMP biosensor data analysis software (Version 3.40, BioLogic Software, Australia) was used to determine ka and kd from the processed data sets. Data from all flow cells were globally fit to a 1:1 bimolecular binding model that included a mass transport term. […] The KD was calculated from the quotient kd/ka.
Two CM5 sensor chips were used in total to immobilize both mAbs. […] Biacore 2000 optical biosensors were used for all studies.
Next, pep-3 was flowed across the mAb immobilized biosensor surfaces. The starting concentration of pep-3 was 1.25 μM, which was followed with eight two-fold serial dilutions in randomized triplicate injections. Blank injections were run every sixth sample throughout the injection series for double referencing purposes.
Finally, the biosensor data was processed with Scrubber and the data was fit to curves utilizing Clamp with a 1:1 interaction model with a term included for mass transport. […]

[6] = target: T5, EGFRvIII receptor on NR6 M cells (Homo sapiens, UniProt P00533, DELINS30-297G); assay: Internalization assay of B-cell culture supernatants (FMAT, glutathione); format: cell-based
T5 construct: expressed in transfected cells; host or cells: NR6 murine fibroblasts (NR6 M)
Method: The top 60 native binding B cell culture supernatants were further assayed for their ability to internalize the receptor. NR6 M cells were seeded at 8000 cells/well into 96 well FMAT plates and incubated overnight. Media was removed and 10-15 μl B-Cell culture supernatant in a total volume of 30 μl media, in duplicate was added. Next, 15 μl of secondary antibody (SS Alexa 647 anti-human IgG Fab at 1.5 μg/ml final concentration) was added and the mixture was incubated on ice for 1 hr. An irrelevant B-Cell Culture supernatant was used to see the effect of the culture media. Human anti-EGFRvIII mAb 13.2.1 was used as a positive control starting at 1 μg/ml (final concentration) and negative control was PK 16.3.1 (human anti-KLH IgG2 antibody) at the same concentration. After incubation, the cells were washed with cold PBS, 50 μl media was added to all of the wells, one of the duplicates were incubated at 37° C. for 30 mins while the other duplicate remained on ice. After the incubations media was removed, 100 ul of cold 50 mM glutathione was added to the set incubated at 37° C. and 100 μl of cold media added to the other set, both sets were then left on ice for 1 hr. The cells were then washed with 100 μl cold PBS and then fixed with 1% paraformaldehyde and read in FMAT. The results were expressed as % intermalized, calculated as total fluorescence in the presence of glutathione/total fluorescence in the absence of glutathione X 100.

[7] = target: T6, A549 cells (wild type EGFR) (Homo sapiens, UniProt P00533); assay: FACS staining of A549 cells; format: cell-based
T6 construct: host or cells: A549
Method: (§2) The specificity of the purified antibodies was ascertained by performing FACS analysis on a panel of cell lines. H80, a human glioblastoma line, and H1477 (H80-EGFRvIII) that expresses high levels of EGFRvIII, A431, a human epidemoid carcinoma line, and A549, a human lung carcinoma cell line were used as the cell lines. All cell lines were from Dr. Bigner except A431 and A549, which were from ATCC (Rockville, Md., U.S.A.). Cells were incubated on ice with 10 μg/ml of the respective antibody for 30 min., washed in FACS buffer and subsequently incubated with PE-conjugated goat anti-human IgG from Jackson ImmunoResearch (West Grove, Pa., U.S.A.). In FIGS. 9A-9L and 10A-10D, the darkened histogram indicates cells stained with an irrelevant IgG, the outlined, or white histogram, represents the staining of the relevant antibodies.

[8] = target: T7, H1477 (H80-EGFRvIII) cells (Homo sapiens, UniProt P00533, DELINS30-297G); assay: FACS staining of H1477 (H80-EGFRvIII) cells; format: cell-based
T7 construct: host or cells: H1477 (H80 human glioblastoma line transfected with EGFRvIII)
Method: as §2

[9] = target: T8, A431 cells (wild type EGFR) (Homo sapiens, UniProt P00533); assay: FACS staining of A431 cells; format: cell-based
T8 construct: host or cells: A431
Method: as §2

B1: 211: XenoMax derived human anti-EGFRvIII antibody, from well 190D7 (antibody, V domains shown)
VH: QVQLVESGGGVVQPGRSLRLSCVASGFTLSSYGMHWVRQAPGKGLEWVAVTSYDGSKKDYADSAKGRFTISRDNSKNTLYLQMNSLRAEDTAVYYCVSEGYCSSSSCYKYYYYGMDVWGQGTTVTVSS
VL: DIVMTQSPLSLPVTPGEPASISCRSSQSLLYRNGNNYLDWYLQRPGQSPQLLIYLGSNRASGVPDRFSGSGSGTDFTLKISRVEAEDVGVYYCMQALQTPRTFGQGTKVEIK
- Binding to purified wildtype EGFr in Western blots [1]: cross reacted
- Binding in Western blot of A431 lysate, reduced sample [2]: no signal
- Binding in Western blot of lysate of A431 cells [2]: cross reacted
- Binding in Western blot of A431 lysate, non-reduced sample ([2]; band of the size of wild-type EGFR): binds strongly
- Epitope mapped by SPOTs [3]: (SEQ ID NO: 97)
- Binding to purified EGFRvIII in Western blots [4]: binds to both native and reduced

B2: 095: XenoMax derived human anti-EGFRvIII antibody (antibody, V domains shown)
VH: QVQLQESGPFLVKPSQTLSLTCTVSGGSISSGGYYWSWIRQHPGKGLEWIGFIYYRGNTYYNPSLKSRVTISVDTSKNQFSLKLSSVTAADTAVYYCARDGYCSRTGCYGGWFDPWGQGTLVTVSP
VL: DIVMTQTPLSSPVTLGQPASISCRSSQSLIHTDGNIYLSWLQQRPGQPPRLLIYKISNRFSGVPDRFSGSGAGTDFTLKISRVEAEDVGVYYCMQGTQFPITFGQGTRLEIK
- ka ([5]; curve fitting): 1.491*10^5
- kd ([5]; curve fitting): 9.927*10^−3
- Ka [5]: 149000 M⁻¹ s⁻¹
- dissociation rate constant (kd, koff) [5]: 0.0099 s⁻¹
- Epitope mapped by SPOTs [3]: (SEQ ID NO: 96)

B3: 125 D10: B-cell culture supernatant well (antibody, V domains shown)
VH: QVQLQQSGPGLVKPSQTLSLTCAISGDSVSSNNAAWNWIRQSPARGLEWLGRTYYRSKWYNDYVVSVKSRITINPDTSKNQFSLQLNSVTPEDTAVYYCVRATAFDYWGQGTLVTVSS
VL: AIVLTQTPLSSPVTLGQPASISCRSSQSLVHRDGNTYLSWLQQRPGQPPRLLIYKISNRFSGVPDRFSGSGAGTDFTLKISRVEPDDVGVYYCMHTTQLPWTFGQGTKVEIK
- With glutathione FL1 × count ([6]; 37° C. for 30 mins, then 50 mM glutathione): 1236
- % internalized, (glut+/glut−) × 100 ([6]; NR6 M cells, 37° C. 30 mins): 52.8%
- No glutathione FL1 × count ([6]; set kept on ice, no glutathione): 2342

B4: 139: XenoMax derived human anti-EGFRvIII IgG1, from well 182A5 (antibody, V domains shown)
VH: EVQVLESGGGLVQPGGSLRLSCAASGFTFSSYAMSWVRQAPGKGLEWVSAISGSGGSTNYADSVKGRFTISRDNSKNTLYLQMNSLRAEDTAVYYCAGSSGWSEYWGQGTLVTVSS
VL: DIQMTQSPSSLSASVGDRVTITCRASQGIRNNLAWYQQKPGKAPKRLIYAASNLQSGVPSRFTGSGSGTEFTLIVSSLQPEDFATYYCLQHHSYPLTSGGGTKVEIK
- Binding / staining of A549 cells in FACS [7]: stained
- kd ([5]; curve fitting): 2.981*10^−3
- Ka [5]: 10300 M⁻¹ s⁻¹
- dissociation rate constant (kd, koff) [5]: 0.00298 s⁻¹
- Binding to the EGFRvIII protein on the transfected cell lines ([8]; 10 μg/ml): bind
- Selectivity for EGFRvIII expressing cells (H1477) as compared to ABX-EGF ([8]; FIGS. 9A-9L, 10A-10D): superior selectivity
- Epitope mapped by SPOTs [3]: (SEQ ID NO: 95)
- Binding / staining of A431 cells in FACS [9]: stained

B5: 250: XenoMax derived human anti-EGFRvIII antibody, from well 138D2 (antibody, V domains shown)
VH: B4 VH with V2G, V4L, L11W, G16E, M83V, A88V
VL: DIQMTQSPSSLSASVGDSVTITCRTSQGIRKNLGWYQQKPGKAPKRLIYAASSLQSGVPSRFSGSGSGTEFTLTISRLQPEDFATYYCLQHHSYPLTFGGGTRVEIR
- Epitope mapped by SPOTs [3]: (SEQ ID NO: 95)
